Target: T1, eIF3c/NIP1 (S. cerevisiae, UniProt P32497 1-812)
T1 construct: eIF3c/NIP1 subunit of yeast eIF3; 50 ug = 0.5 nmol (about 100 kDa) fits a whole protein (surmise); source: purified
Assay: ITC; VP-ITC; 100 uM a/TIF32^276-494 injected in 20 ul aliquots into the cell with 10 uM c/NIP1; 150 mM KCl, 10 mM Hepes pH 7.5, 5% glycerol
Conditions: both partners purified

T1 sequence (P32497 whole entry): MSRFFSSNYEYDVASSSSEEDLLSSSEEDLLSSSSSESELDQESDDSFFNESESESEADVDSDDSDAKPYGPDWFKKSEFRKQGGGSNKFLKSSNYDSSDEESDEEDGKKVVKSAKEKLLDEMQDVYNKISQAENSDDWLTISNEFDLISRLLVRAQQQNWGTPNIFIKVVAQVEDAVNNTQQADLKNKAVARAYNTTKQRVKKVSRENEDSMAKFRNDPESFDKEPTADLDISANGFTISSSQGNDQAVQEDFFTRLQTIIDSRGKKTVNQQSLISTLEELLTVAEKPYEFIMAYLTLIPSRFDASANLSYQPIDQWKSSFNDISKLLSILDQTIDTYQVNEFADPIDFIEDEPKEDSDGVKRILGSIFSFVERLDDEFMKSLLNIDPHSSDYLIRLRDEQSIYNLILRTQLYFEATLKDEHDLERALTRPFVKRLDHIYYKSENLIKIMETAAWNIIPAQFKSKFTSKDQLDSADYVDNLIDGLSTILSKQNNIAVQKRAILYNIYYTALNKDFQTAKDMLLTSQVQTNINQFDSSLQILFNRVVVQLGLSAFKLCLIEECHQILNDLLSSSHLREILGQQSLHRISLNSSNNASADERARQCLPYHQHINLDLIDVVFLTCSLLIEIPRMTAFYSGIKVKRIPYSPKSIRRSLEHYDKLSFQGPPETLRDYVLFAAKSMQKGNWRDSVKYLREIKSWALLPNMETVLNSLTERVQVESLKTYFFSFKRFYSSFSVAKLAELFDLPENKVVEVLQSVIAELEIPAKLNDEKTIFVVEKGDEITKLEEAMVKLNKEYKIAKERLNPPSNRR

B1: a/TIF32^276-494 (PCI domain of eIF3a/TIF32) (domain or fragment, S. cerevisiae, UniProt P38249 276-494, looked up)
chain: PSTLANYYENLVKVFFVSGDPLLHTTAWKKFYKLYSTNPRATEEEFKTYSSTIFLSAISTQLDEIPSIGYDPHLRMYRLLNLDAKPTRKEMLQSIIEDESIYGKVDEELKELYDIIEVNFDVDTVKQQLENLLVKLSSKTYFSQYIAPLRDVIMRRVFVAASQKFTTVSQSELYKLATLPAPLDLSAWDIEKSLLQAAVEDYVSITIDHESAKVTFAKD
notes: Detailed purification scheme is in Supplementary Methods; also called a/TIF32-PCI; a/TIF32 PCI domain
Kd: 0.158 µM
dH: -42.8 kJ/mol
stoichiometry N: 0.944

Reference: article PMC3973348, “Structural integrity of the PCI domain of eIF3a/TIF32 is required for mRNA recruitment to the 43S pre-initiation complexes” (Nucleic Acids Research, 2014)
